Data: paper PMC10881024, “No evidence for a direct extracellular interaction between human Fc receptor–like 3 (MAIA) and the sperm ligand IZUMO1” (Science Advances, 2024)

Molecular target: T1, human IZUMO1 entire ectodomain, biotinylated, rat Cd4 domains 3 and 4 tagged (bait construct) (human, UniProt Q8IYV9 22-285, enzymatically biotinylated (BirA) on the biotinylation target sequence)
T1 construct: IZUMO1, human, entire ectodomain, truncated at P285 of Q8IYV9; Monomer as expressed; also called IZUMO1 bait; biotinylated monomeric IZUMO1; source: HEK293-6E, transient transfection, cotransfected with secreted BirA; conditioned medium dialysed in PBS, or purified from spent medium on Ni-NTA (SAVEXIS); not shown: domains 3 and 4 of rat CD4, C-terminal, kept
Experiment: SAVEXIS; purified monomeric biotinylated baits at 13.4 nM captured on streptavidin-coated plates 16 hours at 4°C; preys made multimeric by clustering biotinylated monomers around streptavidin-HRP, 4.4 nM, 1 hour at room temperature; HBS-T washes with desthiobiotin; tetramethylbenzidine, absorbance at 650 nm
Settings: both partners purified

T1 sequence (Q8IYV9 22-285): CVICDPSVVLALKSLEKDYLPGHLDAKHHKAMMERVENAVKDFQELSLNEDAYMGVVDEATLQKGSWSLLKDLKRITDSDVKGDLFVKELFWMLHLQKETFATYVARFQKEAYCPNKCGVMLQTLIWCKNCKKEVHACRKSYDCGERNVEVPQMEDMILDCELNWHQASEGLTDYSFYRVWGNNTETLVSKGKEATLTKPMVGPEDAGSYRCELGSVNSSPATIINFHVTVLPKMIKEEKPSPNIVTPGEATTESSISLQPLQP

B1: human JUNO entire ectodomain, biotinylated, rat Cd4 domains 3 and 4 tagged (bait construct) (domain or fragment, UniProt A6ND01 20-231, looked up)
chain: GDELLNICMNAKHHKRVPSPEDKLYEECIPWKDNACCTLTTSWEAHLDVSPLYNFSLFHCGLLMPGCRKHFIQAICFYECSPNLGPWIQPVGSLGWEVAPSGQGERVVNVPLCQEDCEEWWEDCRMSYTCKSNWRGGWDWSQGKNRCPKGAQCLPFSHYFPTPADLCEKTWSNSFKASPERRNSGRCLQKWFEPAQGNPNVAVARLFASSAP
modifications: enzymatically biotinylated (BirA) on the biotinylation target sequence
notes: JUNO, human, entire ectodomain, truncated at P231 of A6ND01; also called JUNO bait; human JUNO (bait); source: HEK293-6E, transient transfection, cotransfected with secreted BirA; conditioned medium dialysed in PBS (AVEXIS), or purified from spent medium on Ni-NTA (SAVEXIS); not shown: domains 3 and 4 of rat CD4, C-terminal, kept
  binding result: binds
